From patent US20240368668 come the findings set out here.

In series [1] the target is T1, purified recombinant human HA-tagged EFEMP1/Fibulin-3 (R&D, 8416-FB), Q12805.
T1 chain: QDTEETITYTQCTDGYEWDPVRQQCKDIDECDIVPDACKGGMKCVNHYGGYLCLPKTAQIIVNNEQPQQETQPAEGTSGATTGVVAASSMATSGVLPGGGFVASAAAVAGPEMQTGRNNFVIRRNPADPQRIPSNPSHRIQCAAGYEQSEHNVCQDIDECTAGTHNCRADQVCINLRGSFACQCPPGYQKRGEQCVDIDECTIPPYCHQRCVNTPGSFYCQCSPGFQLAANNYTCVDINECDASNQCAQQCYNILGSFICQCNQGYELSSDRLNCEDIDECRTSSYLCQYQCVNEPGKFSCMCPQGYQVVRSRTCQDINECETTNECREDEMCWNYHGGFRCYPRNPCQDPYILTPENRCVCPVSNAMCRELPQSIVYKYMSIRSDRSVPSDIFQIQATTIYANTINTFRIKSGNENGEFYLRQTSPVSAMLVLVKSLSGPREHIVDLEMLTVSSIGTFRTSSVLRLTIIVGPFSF

The target of series [2] is T2, endogenous EFEMP1 (EGF-containing fibulin-like extracellular matrix protein 1, Fibulin-3) secreted by HUVEC, Q12805.
T2 chain: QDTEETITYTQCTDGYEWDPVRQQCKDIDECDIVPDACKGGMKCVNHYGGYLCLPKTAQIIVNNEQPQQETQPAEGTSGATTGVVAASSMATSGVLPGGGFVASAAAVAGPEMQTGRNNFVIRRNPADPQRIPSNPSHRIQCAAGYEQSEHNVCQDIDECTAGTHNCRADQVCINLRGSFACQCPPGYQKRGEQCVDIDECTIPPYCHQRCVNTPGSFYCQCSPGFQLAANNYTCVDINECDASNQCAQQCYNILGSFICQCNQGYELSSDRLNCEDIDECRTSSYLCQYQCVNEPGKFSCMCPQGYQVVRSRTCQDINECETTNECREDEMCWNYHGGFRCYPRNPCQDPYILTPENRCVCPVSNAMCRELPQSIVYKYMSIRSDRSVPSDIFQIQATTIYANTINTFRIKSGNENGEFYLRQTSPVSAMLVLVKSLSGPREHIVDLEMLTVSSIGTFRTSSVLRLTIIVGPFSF

B1: purified full-length mouse ADAMTS7 S3A EQ (catalytic mutant E373Q) (protein)
chain: SVAKEKWVETLVVADSKMVEYHGQPQVESYVLTIMNMVAGLFHDPSIGNPIHISIVRLIILEDEEKDLKITHHAEETLKNFCRWQKNINIKGDDHPQHHDTAILLTRKDLCASMNQPCETLGLSHVSGLCHPQLSCSVSEDTGMPLAFTVAHQLGHSFGIQHDGTGNDCESIGKRPFIMSPQLLYDRGIPLTWSRCSREYITRFLDRGWGLCLDDRPSKDVIALPSVLPGVLYDVNHQCRLQYGSHSAYCEDMDDVCHTLWCSVGTTCHSKLDAAVDGTSCGKNKWCLKGECVPEGFQPEAVDGGWSGWSAWSDCSRSCGVGVRSSERQCTQPVPKNRGKYCVGERKRSQLCNLPACPPDRPSFRHTQCSQFDGMLYKGKLHKWVPVPNDDNPCELHCRPSNSSNTEKLRDAVVDGTPCYQSRISRDICLNGICKNVGCDFVIDSGAEEDRCGVCRGDGSTCQTVSRTFKETEGQGYVDIGLIPAGAREILIEEVAEAANFLALRSEDPDKYFLNGGWTIQWNGDYRVAGTTFTYARKGNWENLTSPGPTSEPVWIQLLFQEKNPGVHYQYTIQRDSHDQVRPPEFSWHYGPWSKCTVTCGTGVQRQSLYCMERQAGVVAEEYCNTLNRPDERQRKCSEEPCPPRWWAGEWQPCSRSCGPEGLSRRAVFCIRSMGLDEQRALELSACEHLPRPLAETPCNRHVICPSTWGVGNWSQCSVTCGAGIRQRSVLCINNTDVPCDEAERPITETFCFLQPCQYPMYIVDTGASGSGSSSPELFNEVDFIPNQLAPRPSPASSPKPVSISNAIDEEELDPPGPVFVDDFYYDYNFINFHEDLSYGSFEEPHPDLVDNGGWTAPPHIRPTESPSDTPVPTAGALGAEAEDIQGSWSPSPLLSEASYSPPGLEQTSINPLANFLTEEDTPMGAPELGFPSLPWPPASVDDMMTPVGPGNPDELLVKEDEQSPPSTPWSDRNKLSTDGNPLGHTSPALPQSPIPTQPSPPSISPTQASPSPDVVEVSTGWNAAWDPVLEADLKPGHGELPSTVEVASPPLLPMATVPGIWGRDSPLEPGTPTFSSPELSSQHLKTLTMPGTLLLTVPTDLRSPGPSGQPQTPNLEGTQSPGLLPTPARETQTNSSKDPEVQPLQPSLEEDGDPADPLPARNASWQVGNWSQCSTTCGLGAIWRLVSCSSGNDEDCTLASRPQPARHCHLRPCAAWRTGNWSKCSRNCGGGSSTRDVQCVDTRDLRPLRPFHCQPGPTKPPNRQLCGTQPCLPWYTSSWRECSEACGGGEQQRLVTCPEPGLCEESLRPNNSRPCNTHPCTQWVVGPWGQCSAPCGGGVQRRLVRCVNTQTGLAEEDSDLCSHEAWPESSRPCATEDCELVEPPRCERDRLSFNFCETLRLLGRCQLPTIRAQCCRSCPPLSRGVPSRGHQRVARR
For the protein B1, the “in vitro cleavage, western blot and mass spectrometry of gel bands” value in series [1] was “background cleavage under conditions with no enzyme or with ADAMTS7 S3A EQ treatment, however these occurrences were relatively minor compared to the activity stimulated by ADAMTS7 S3A WT”.

B2: full-length mouse Adamts7 1-1857 WT with a carboxyl terminal 3xFLAG tag, expressed from adenovirus (protein)
chain: SVSKEKWVETLVVADSKMVEYHGQPQVESYVLTIMNMVAGLFHDPSIGNPIHISIVRLIILEDEEKDLKITHHAEETLKNFCRWQKNINIKGDDHPQHHDTAILLTRKDLCASMNQPCETLGLSHVSGLCHPQLSCSVSEDTGMPLAFTVAHELGHSFGIQHDGTGNDCESIGKRPFIMSPQLLYDRGIPLTWSRCSREYITRFLDRGWGLCLDDRPSKDVIALPSVLPGVLYDVNHQCRLQYGSHSAYCEDMDDVCHTLWCSVGTTCHSKLDAAVDGTSCGKNKWCLKGECVPEGFQPEAVDGGWSGWSAWSDCSRSCGVGVRSSERQCTQPVPKNRGKYCVGERKRSQLCNLPACPPDRPSFRHTQCSQFDGMLYKGKLHKWVPVPNDDNPCELHCRPSNSSNTEKLRDAVVDGTPCYQSRISRDICLNGICKNVGCDFVIDSGAEEDRCGVCRGDGSTCQTVSRTFKETEGQGYVDIGLIPAGAREILIEEVAEAANFLALRSEDPDKYFLNGGWTIQWNGDYRVAGTTFTYARKGNWENLTSPGPTSEPVWIQLLFQEKNPGVHYQYTIQRDSHDQVRPPEFSWHYGPWSKCTVTCGTGVQRQSLYCMERQAGVVAEEYCNTLNRPDERQRKCSEEPCPPRWWAGEWQPCSRSCGPEGLSRRAVFCIRSMGLDEQRALELSACEHLPRPLAETPCNRHVICPSTWGVGNWSQCSVTCGAGIRQRSVLCINNTDVPCDEAERPITETFCFLQPCQYPMYIVDTGASGSGSSSPELFNEVDFIPNQLAPRPSPASSPKPVSISNAIDEEELDPPGPVFVDDFYYDYNFINFHEDLSYGSFEEPHPDLVDNGGWTAPPHIRPTESPSDTPVPTAGALGAEAEDIQGSWSPSPLLSEASYSPPGLEQTSINPLANFLTEEDTPMGAPELGFPSLPWPPASVDDMMTPVGPGNPDELLVKEDEQSPPSTPWSDRNKLSTDGNPLGHTSPALPQSPIPTQPSPPSISPTQASPSPDVVEVSTGWNAAWDPVLEADLKPGHGELPSTVEVASPPLLPMATVPGIWGRDSPLEPGTPTFSSPELSSQHLKTLTMPGTLLLTVPTDLRSPGPSGQPQTPNLEGTQSPGLLPTPARETQTNSSKDPEVQPLQPSLEEDGDPADPLPARNASWQVGNWSQCSTTCGLGAIWRLVSCSSGNDEDCTLASRPQPARHCHLRPCAAWRTGNWSKCSRNCGGGSSTRDVQCVDTRDLRPLRPFHCQPGPTKPPNRQLCGTQPCLPWYTSSWRECSEACGGGEQQRLVTCPEPGLCEESLRPNNSRPCNTHPCTQWVVGPWGQCSAPCGGGVQRRLVRCVNTQTGLAEEDSDLCSHEAWPESSRPCATEDCELVEPPRCERDRLSFNFCETLRLLGRCQLPTIRAQCCRSCPPLSRGVPSRGHQRVARR
In the case of B2, in series [2], the “cleavage of endogenous EFEMP1 in HUVEC media, western blot and mass spectrometry” value was “identified semi-tryptic and semi-chymotryptic peptides indicating cleavage at 123.124 and 124.125 sites from the Ad-ADAMTS7 WT sample”; the “relative cleavage at 123.124 against 124.125 (TAILS log FC and total intensities)” value is listed as “predicting 2-3 fold more cleavage at 123.124 (ASAA|AVAG) (SEQ ID NO: 1) compared to the adjacent 124.125 (SAAA|VAGP) (SEQ ID NO: 2) site”. For the same protein, the “auto-cleavage, western blot of HUVEC media” value with Q68SA9 is “ADAMTS7 WT migrated at two bands matching the observed autocleavage event in the mucin domain”.

B3: full-length mouse Adamts7 1-1857 E373Q catalytic mutant with a carboxyl terminal 3xFLAG tag, expressed from adenovirus (protein)
chain: SVSKEKWVETLVVADSKMVEYHGQPQVESYVLTIMNMVAGLFHDPSIGNPIHISIVRLIILEDEEKDLKITHHAEETLKNFCRWQKNINIKGDDHPQHHDTAILLTRKDLCASMNQPCETLGLSHVSGLCHPQLSCSVSEDTGMPLAFTVAHQLGHSFGIQHDGTGNDCESIGKRPFIMSPQLLYDRGIPLTWSRCSREYITRFLDRGWGLCLDDRPSKDVIALPSVLPGVLYDVNHQCRLQYGSHSAYCEDMDDVCHTLWCSVGTTCHSKLDAAVDGTSCGKNKWCLKGECVPEGFQPEAVDGGWSGWSAWSDCSRSCGVGVRSSERQCTQPVPKNRGKYCVGERKRSQLCNLPACPPDRPSFRHTQCSQFDGMLYKGKLHKWVPVPNDDNPCELHCRPSNSSNTEKLRDAVVDGTPCYQSRISRDICLNGICKNVGCDFVIDSGAEEDRCGVCRGDGSTCQTVSRTFKETEGQGYVDIGLIPAGAREILIEEVAEAANFLALRSEDPDKYFLNGGWTIQWNGDYRVAGTTFTYARKGNWENLTSPGPTSEPVWIQLLFQEKNPGVHYQYTIQRDSHDQVRPPEFSWHYGPWSKCTVTCGTGVQRQSLYCMERQAGVVAEEYCNTLNRPDERQRKCSEEPCPPRWWAGEWQPCSRSCGPEGLSRRAVFCIRSMGLDEQRALELSACEHLPRPLAETPCNRHVICPSTWGVGNWSQCSVTCGAGIRQRSVLCINNTDVPCDEAERPITETFCFLQPCQYPMYIVDTGASGSGSSSPELFNEVDFIPNQLAPRPSPASSPKPVSISNAIDEEELDPPGPVFVDDFYYDYNFINFHEDLSYGSFEEPHPDLVDNGGWTAPPHIRPTESPSDTPVPTAGALGAEAEDIQGSWSPSPLLSEASYSPPGLEQTSINPLANFLTEEDTPMGAPELGFPSLPWPPASVDDMMTPVGPGNPDELLVKEDEQSPPSTPWSDRNKLSTDGNPLGHTSPALPQSPIPTQPSPPSISPTQASPSPDVVEVSTGWNAAWDPVLEADLKPGHGELPSTVEVASPPLLPMATVPGIWGRDSPLEPGTPTFSSPELSSQHLKTLTMPGTLLLTVPTDLRSPGPSGQPQTPNLEGTQSPGLLPTPARETQTNSSKDPEVQPLQPSLEEDGDPADPLPARNASWQVGNWSQCSTTCGLGAIWRLVSCSSGNDEDCTLASRPQPARHCHLRPCAAWRTGNWSKCSRNCGGGSSTRDVQCVDTRDLRPLRPFHCQPGPTKPPNRQLCGTQPCLPWYTSSWRECSEACGGGEQQRLVTCPEPGLCEESLRPNNSRPCNTHPCTQWVVGPWGQCSAPCGGGVQRRLVRCVNTQTGLAEEDSDLCSHEAWPESSRPCATEDCELVEPPRCERDRLSFNFCETLRLLGRCQLPTIRAQCCRSCPPLSRGVPSRGHQRVARR
As to B3, the “cleavage of endogenous EFEMP1 in HUVEC media, mass spectrometry” value in series [2] was “these sites were not detected in the Luc or EQ samples”.
